According to patent US20230190881A1 (BIOTEST, published 2023):

Target: T1, human serum albumin (HSA) (human, UniProt P02768 25-609)
T1 construct: also called human albumin; Albiomin 20%
Assay: FVIII antigen ELISA on plasma samples; albumin binding inferred from reduced detection

Binder	binding result
AD2CD2_SC (other) ATRRYYLGAVELSWDYMQSDLGELPVDARFPPRVPKSFPFNTSVVYKKTLFVEFTDHLFNIAKPRPPWMGLLGPTIQAEVYDTVVITLKNMASHPVSLHAVGVSYWKASEGAEYDDQTSQREKEDDKVFPGGSHTYVWQVLKENGPMASDPLCLTYSYLSHVDLVKDLNSGLIGALLVCREGSLAKEKTQTLHKFILLFAVFDEGKSWHSETKNSLMQDRDAASARAWPKMHTVNGYVNRSLPGLIGCHRKSVYWHVIGMGTTPEVHSIFLEGHTFLVRNHRQASLEISPITFLTAQTLLMDLGQFLLFCHISSHQHDGMEAYVKVDSCPEEPQLRMKNNEEAEDYDDDLTDSEMDVVRFDDDNSPSFIQIRSVAKKHPKTWVHYIAAEEEDWDYAPLVLAPDDRSYKSQYLNNGPQRIGRKYKKVRFMAYTDETFKTREAIQHESGILGPLLYGEVGDTLLIIFKNQASRPYNIYPHGITDVRPLYSRRLPKGVKHLKDFPILPGEIFKYKWTVTVEDGPTKSDPRCLTRYYSSFVNMERDLASGLIGPLLICYKESVDQRGNQIMSDKRNVILFSVFDENRSWYLTENIQRFLPNPAGVQLEDPEFQASNIMHSINGYVFDSLQLSVCLHEVAYWYILSIGAQTDFLSVFFSGYTFKHKMVYEDTLTLFPFSGETVFMSMENPGLWILGCHNSDFRNRGMTALLKVSSCDKNTGDYYEDSYEDISAYLLSKNNAIEPRSFSQNPPVLSKNNAIEPRSFSQNSRHPSLAEAKEAANAELDSYGVSDFYKRLIDKAKTVEGVEALKDAILAALPGSGGSGGSGGSGSGSKNNAIEPRSFSQNSRHPSGSGGSGGSGGSGSLAEAKEAANAELDSYGVSDFYKRLIDKAKTVEGVEALKDAILAALPSKNNAIEPRSFSQNSRHPSQSDQEEIDYDDTISVEMKKEDFDIYDEDENQSPRSFQKKTRHYFIAAVERLWDYGMSSSPHVLRNRAQSGSVPQFKKVVFQEFTDGSFTQPLYRGELNEHLGLLGPYIRAEVEDNIMVTFRNQASRPYSFYSSLISYEEDQRQGAEPRKNFVKPNETKTYFWKVQHHMAPTKDEFDCKAWAYFSDVDLEKDVHSGLIGPLLVCHTNTLNPAHGRQVTVQEFALFFTIFDETKSWYFTENMERNCRAPCNIQMEDPTFKENYRFHAINGYIMDTLPGLVMAQDQRIRWYLLSMGSNENIHSIHFSGHVFTVRKKEEYKMALYNLYPGVFETVEMLPSKAGIWRVECLIGEHLHAGMSTLFLVYSNKCQTPLGMASGHIRDFQITASGQYGQWAPKLARLHYSGSINAWSTKEPFSWIKVDLLAPMIIHGIKTQGARQKFSSLYISQFIIMYSLDGKKWQTYRGNSTGTLMVFFGNVDSSGIKHNIFNPPIIARYIRLHPTHYSIRSTLRMELMGCDLNSCSMPLGMESKAISDAQITASSYFTNMFATWSPSKARLHLQGRSNAWRPQVNNPKEWLQVDFQKTMKVTGVTTQGVKSLLTSMYVKEFLISSSQDGHQWTLFFQNGKVKVFQGNQDSFTPVVNSLDPPLLTRYLRIHPQSWVHQIALRMEVLGCEAQDLYSKNNAIEPRSFSQNSRHPSLAEAKEAANAELDSYGVSDFYKRLIDKAKTVEGVEALKDAILAALPGSGGSGGSGGSGSGSKNNAIEPRSFSQNSRHPSGSGGSGGSGGSGSLAEAKEAANAELDSYGVSDFYKRLIDKAKTVEGVEALKDAILAALP	binds
AD2CD2-19M_SC (other, also called de-immunized FVIII-ABD fusion molecule) ATRRYYLGAVELSWDYMQSDLGELPVDARFPPRVPKSFPFNTSVVYKKTLFVEFTDHLFSIAKPRPPWMGLLGPTIQAEVYDTVVITLKNMATHPVSLHAVGVSYWKASEGAEYDDQTSQREKEDDKVFPGGSHTYVWQVSKENGPMASDPQCLTYSYLSHVDLAKDLNSGLIGALLVCREGSLAKEKTQTLHKFILLFAVFDEGKSWHSETKDSLMQDRDAASARAWPKMHTVNGYVNRSLPGLTGCHRKSVYWHVIGMGTTPEVHSIFLEGHTFLVRDHRQASLEISPITFLTAQTLLMDLGQFLLFCHISSHQHDGMEAYVKVDSCPEEPQLRMKNNEEAEDYDDDLTDSEMDVVRFDDDNSPSFIQIRSVAKKHPKTWVHYIAAEEEDWDYAPLVLAPDDRSHKSQYLNNGPQRIGRKYKKVRFMAYTDETFKTREAIQHESGILGPLLYGEVGDTLLIIFKNQASRPYNIYPHGITDVRPLYERRLPKGVKHLKDFPILPGEIFKYKWTVTVEDGPTKSDPRCLTRYYSSHVNMERDLASGLIGPLLICYKESVDQRGNQIMSDKRNVILFSVFDENRSWYLTENIQRFLPEPAGVQLEDPEFQASNIMHSINGYVFDSLQLSVCLHEVAYWYILSIGAQTDFLSVFFSGYTFKHKMVYEDTLTLFPFSGETVFMSMENPGNWILGCHNSDFRNRGMTALLKVSSCDKNTGDYYEDSYEDISASLLSKNNAIEPRSFSQNPPVLSKNNAIEPRSFSQNSRHPSLAEAKEAANAELDSYGVSDFYKRLIDKAKTVEGVEALKDAILAALPGSGGSGGSGGSGSGSKNNAIEPRSFSQNSRHPSGSGGSGGSGGSGSLAEAKEAANAELDSYGVSDFYKRLIDKAKTVEGVEALKDAILAALPSKNNAIEPRSFSQNSRHPSQSDQEEIDYDDTISVEMKKEDFDIYDEDENQSPRSFQKKTRHYFIAAVERLWDYGMSSSPHVLRNRAQSGSVPQFKKVVFQEFTDGSFTQPLYRGELNEHLGLLGPYIRAEVEDNIMVTFRNQASRPYSFYSSLISYEEDQRQGAEPRKNFVKPNETKTYFWEVQHHMAPTKDEFDCKAWAYFSDVDLEKDVHSGLIGPLLVCHTNTLNPAHGRQVTVQEFALFFTIFDETKSWYFTENMERNCRAPCNIQMEDPTFKENYRFHAINGYIMDTLPGLVMAQDQRIRWYLLSMGSNENIHSIHFSGHVFTVRKKEEYKMALYNLYPGVFETVEMLPSKAGIWRVECLIGEHLHAGMSTLFLVYSDKCQTPLGMASGHIRDFQITASGQYGQWAPKLARLHYSGGINAWSTKEPFSWIKVDLLAPMIIHGIKTQGARQKFSSLYISQFIIMYSLDGKKWQTYRGNSTGTLMVFFGNVDSSGIKHNIFNPPIIARYIRLHPTHYSIRSTLRMELMGCDLNSCSMPLGMESKAISDAQITASSYFTNMFATWSPSKARLHLQGRSNAWRPQVNNPKEWLQVDFQKTMKVTGVTTQGVKSLLTSMYVKEFLISSSQDGHQWTLFFQNGKVKVFQGNQDSFTPVVNTLDPPLLTRYLRIHPQSWAHQIALRMEVLGCEAQDLYSKNNAIEPRSFSQNSRHPSLAEAKEAANAELDSYGVSDFYKRLIDKAKTVEGVEALKDAILAALPGSGGSGGSGGSGSGSKNNAIEPRSFSQNSRHPSGSGGSGGSGGSGSLAEAKEAANAELDSYGVSDFYKRLIDKAKTVEGVEALKDAILAALP	binds
